Data: the supplement of paper PMC10567573

B1: POLD4 (parent)
chain: ITDSYPVVKRREGPAGHSKGELAP

Variants of: B1
Test: protein stability index of a GFP-peptide fusion (GPS, HEK-293T) (PSI 1-6); higher = more stable
Conditions: c terminus: a fixed tail appended
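Also: lentivirally expressed fusions sorted by FACS into six bins by GFP to DsRed ratio, PSI derived from sequencing read proportions per bin multiplied by bin number.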

Protein stability index of substitutions, site by site:
P14: Y 2.81
A15: C 2.8 | D 2.81 | E 3.33 | F 2.41 | H 2.75 | I 2.58 | K 3.45 | L 3.32 | M 3.08 | N 2.97 | P 3.03 | Q 2.94 | R 3.27 | S 2.8 | T 2.22 | V 3.23 | Y 3.75
G16: A 4.75 | C 3.52 | D 3.77 | E 3.83 | F 3.33 | H 3.08 | I 2.72 | K 3.07 | L 2.49 | M 2.56 | N 2.82 | P 3.28 | Q 3.5 | R 3.64 | S 2.51 | T 3.62 | V 2.57 | W 2.66 | Y 2.39
H17: A 2.97 | C 2.06 | D 2.31 | E 4.36 | F 3.01 | I 3.49 | K 4.05 | L 3.49 | N 3.54 | P 2.5 | Q 3.51 | R 3.35 | S 3.78 | T 3.91 | V 3.2 | Y 2.66
S18: A 3.01 | C 3.17 | D 4.01 | E 3.26 | F 2.91 | G 3.94 | H 3.35 | I 3.44 | K 3.02 | L 2.91 | M 2.68 | N 2.22 | P 2.84 | Q 3.65 | R 3.14 | T 2.87 | V 2.1 | W 2.8 | Y 2.46
K19: D 3.96 | E 3.28 | F 2.48 | G 3.89 | H 3.56 | I 2.79 | L 2.81 | M 2.9 | N 2.59 | P 4.07 | Q 3.16 | R 2.81 | S 3.46 | T 3.62 | V 3.37 | Y 3.06
G20: A 3.06 | C 3.79 | D 3.55 | E 2.93 | F 2.81 | H 2.22 | I 2.99 | K 2.62 | L 3.11 | M 3.49 | N 4.09 | P 4 | Q 2.41 | S 2.58 | T 2.67 | V 3.07 | W 2.83 | Y 2.92
E21: C 3.14 | D 3.37 | F 2.64 | G 3.23 | H 3.23 | I 2.96 | K 3 | L 2.85 | M 2.6 | N 3.1 | P 4.46 | Q 4.12 | R 2.13 | S 2.89 | T 2.75 | V 3.03 | W 2.84
L22: A 3.62 | C 3.26 | D 3.81 | E 3.94 | F 3.27 | G 2.91 | H 3.2 | I 3.1 | K 3.71 | M 3.21 | N 3.31 | P 3.31 | Q 3.89 | R 2.57 | S 3.27 | T 3.21 | V 3.42 | W 3.04 | Y 2.52
A23: D 2.69 | E 3.21 | F 3.27 | G 2.68 | H 3 | I 3.24 | K 3.65 | L 3.2 | M 2.1 | N 3.05 | P 2.96 | Q 3.31 | R 3.01 | S 3.59 | T 2.68 | V 2.8 | W 3.43 | Y 3.21
P24: A 2.56 | C 3.13 | D 2.5 | E 3.66 | F 4.06 | I 1.97 | L 3.56
